Measurements as given in US20230075633A1.

Tests used:
[1] = biological target: human CEA (human) (UniProt P06731); test: cell-based or functional assay
[2] = biological target: human CD3 (human) (UniProt P07766); test: flow cytometry on Jurkat cells
[3] = biological target: human CD3 (human) (UniProt P07766); test: flow cytometry on human PBMC (ND 12)

human CEA (human), sequence (P06731 35-702, form in doubt): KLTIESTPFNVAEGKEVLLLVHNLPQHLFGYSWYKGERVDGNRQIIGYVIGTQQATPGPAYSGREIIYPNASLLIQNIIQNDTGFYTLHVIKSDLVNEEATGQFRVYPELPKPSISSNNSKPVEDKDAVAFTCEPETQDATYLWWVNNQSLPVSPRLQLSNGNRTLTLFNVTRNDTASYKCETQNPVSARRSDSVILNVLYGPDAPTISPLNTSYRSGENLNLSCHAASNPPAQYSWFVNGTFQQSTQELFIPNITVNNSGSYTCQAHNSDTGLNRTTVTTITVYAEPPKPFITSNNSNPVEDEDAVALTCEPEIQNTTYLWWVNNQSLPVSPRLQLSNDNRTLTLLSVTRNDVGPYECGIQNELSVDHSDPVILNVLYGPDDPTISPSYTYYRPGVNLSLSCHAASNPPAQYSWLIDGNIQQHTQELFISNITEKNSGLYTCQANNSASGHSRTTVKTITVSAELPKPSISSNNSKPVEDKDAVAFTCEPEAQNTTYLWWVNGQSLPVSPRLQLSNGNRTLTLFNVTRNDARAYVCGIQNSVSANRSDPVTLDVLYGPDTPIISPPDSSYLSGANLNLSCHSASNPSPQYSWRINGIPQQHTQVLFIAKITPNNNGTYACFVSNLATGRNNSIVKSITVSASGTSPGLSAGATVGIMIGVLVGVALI
human CD3 (human), sequence (P07766 23-207): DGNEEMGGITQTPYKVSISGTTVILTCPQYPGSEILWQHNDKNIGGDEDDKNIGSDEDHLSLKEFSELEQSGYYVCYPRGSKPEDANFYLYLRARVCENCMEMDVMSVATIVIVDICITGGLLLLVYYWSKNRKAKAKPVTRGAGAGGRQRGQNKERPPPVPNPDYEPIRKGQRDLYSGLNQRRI

cytolysis of LS174T cells by PBMC: EC50 [1]: 5 pM
cytolysis of MKN-45 cells by PBMC, E/T 20:1, 48 h: EC50 against that of CEA/CD3OPT1a3b2b1 BsAb [1]: 50 fold
cytolysis of MKN-45 cells by PBMC: EC50 [1]: 1 pM
EC50 [2]: 0.207 nM
EC50 [3]: 0.34 nM
Substance: Roche CEA-TCB (bispecific antibody)
